B1: Hu004-101-αCD3-BITE (bispecific antibody)
chain: EVQLVESGGGLVQPGGSLRLSCAASGFTFSGYGMSWVRQAPGKGLEWVATITSGGTYTYYPDSVKGRFTISRDNAKNSLYLQMNSLRAEDTAVYYCARSLAGNAMDYWGQGTLVTVSSGGGGSGGGGSGGGGSQVQLVQSGAEVKKPGASVKVSCKASGYTFTRYTMHWVRQAPGQGLEWMGYINPSRGYTNYNQKFKDRVTITADKSTSTAYMELSSLRSEDTAVYYCARYYDDHYCLDYWGQGTTVTVSSGGGGSGGGGSGGGGSEIVLTQSPATLSLSPGERATLSCSASSSVSYMNWYQQKPGKAPKRLIYDTSKLASGVPSRFSGSGSGTDFTLTINSLEAEDAATYYCQQWSSNPFTFGQGTKVEIKGGGGSGGGGSGGGGSDIQMTQSPSTLSASVGDRVTITCRASQSISNWLAWYQQKPGEAPKLLIYKASNLESGVPSRFSGSGSGTEFTLTISSLQPDDFATYYCQQFGTFGQGTKVEIK
B2: Hu004-68-αCD3-BITE (bispecific antibody)
chain: EVQLVESGGGLVQPGGSLRLSCAASGFTFSGYGMSWVRQAPGKGLEWVATITSGGTYTYYPDSVKGRFTISRDNAKNSLYLQMNSLRAEDTAVYYCARSLAGNAMDYWGQGTLVTVSSGGGGSGGGGSGGGGSQVQLVQSGAEVKKPGASVKVSCKASGYTFTRYTMHWVRQAPGQGLEWMGYINPSRGYTNYNQKFKDRVTITADKSTSTAYMELSSLRSEDTAVYYCARYYDDHYCLDYWGQGTTVTVSSGGGGSGGGGSGGGGSEIVLTQSPATLSLSPGERATLSCSASSSVSYMNWYQQKPGKAPKRLIYDTSKLASGVPSRFSGSGSGTDFTLTINSLEAEDAATYYCQQWSSNPFTFGQGTKVEIKGGGGSGGGGSGGGGSEIVLTQSPVTLSVSPGERATLSCRASQGVTSNLAWYQQKPGQAPRLLIYGASTRATGVPARFSGSGSGTEFTLTISSLQSEDFAVYYCQHRGTFGQGTKVDIK

Target: human CD47 (human, UniProt Q08722 19-323)
Assay: cell-based or functional assay

Row | Binder | tumor killing activity on NCI-H292 cells with T cells (luciferase), compared with clone No. 100 [fold] | tumor killing activity on NCI-H292 cells with T cells (luciferase), compared with the T cell control group [fold] | tumor killing activity on NCI-H292 cells with T cells (luciferase), compared with the positive control antibody (B6H12-αCD3-BITE) [fold] | tumor killing activity on SK-OV3 cells with T cells (luciferase), compared with clone No. 100 [fold] | tumor killing activity on SK-OV3 cells with T cells (luciferase), compared with the T cell control group [fold] | tumor killing activity on SK-OV3 cells with T cells (luciferase), compared with the positive control antibody (B6H12-αCD3-BITE) [fold]
1 | B1 | 1.2 | 4 | 1.2 |  |  | 
2 | B2 |  |  |  | 2 | 3.5 | 1.5
